Publication PMC9352680, “A comprehensive thermodynamic model for RNA binding by the Saccharomyces cerevisiae Pumilio protein PUF4”

T1: PUF4 RNA-binding domain (Saccharomyces cerevisiae, UniProt P25339 537-888)
T1 sequence: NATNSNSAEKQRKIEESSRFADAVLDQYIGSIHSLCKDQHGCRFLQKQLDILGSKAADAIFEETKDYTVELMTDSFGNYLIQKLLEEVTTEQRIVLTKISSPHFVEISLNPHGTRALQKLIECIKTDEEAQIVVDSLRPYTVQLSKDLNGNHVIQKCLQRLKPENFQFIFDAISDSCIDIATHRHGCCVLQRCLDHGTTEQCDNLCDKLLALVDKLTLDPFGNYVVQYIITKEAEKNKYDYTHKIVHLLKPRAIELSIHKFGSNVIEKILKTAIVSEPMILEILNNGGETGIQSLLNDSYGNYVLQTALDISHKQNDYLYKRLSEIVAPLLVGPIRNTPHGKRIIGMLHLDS


target: T1, PUF4 RNA-binding domain; experiment: Mg; RNA-MaP; 20 mM Na-HEPES pH 7.4, 30 mM KOAc, 0.75 mM MgCl2, 0.1% Tween-20, 5% glycerol, 0.1 mg/mL BSA, 2 mM DTT; 25 C; 0.0125-409.6 nM protein; settings: tags: N-His6-TEV cleaved; C-SNAP kept, Cy3B-labelled; label: tethered on chip by stalled RNA polymerase

Binder | Kd [nM]
UCUCUUCAUGUAUAUUACCUCUCUU (ssRNA) [Id_ii_S1_P4E.2_K4.1_C4.2_[T-1A]_H4.1_A4.1_F4.1_T4.2_[G10C]_[T11C]] | 0.916
UCUCUUAUUGUAUAUUAUAUCUCUU (ssRNA) [Id_ii_S1_P4E.2_K4.1_C4.2_[C-2A]_H4.1_A4.1_F4.1_T4.2_[G10T]_[T11A]] | 1.12
UCUCUUUUUGUAUAUUAUCUCUCUU (ssRNA) [Id_ii_S1_P4E.2_K4.1_C4.2_[C-2T]_H4.1_A4.1_F4.1_T4.2_[G10T]_[T11C]] | 0.856
UCUCUUCGUGUAUAUUAUCUCUCUU (ssRNA) [Id_ii_S1_P4E.2_K4.1_C4.2_[T-1G]_H4.1_A4.1_F4.1_T4.2_[G10T]_[T11C]] | 0.874
UCUCUUAUUGUAUAUUAAAUCUCUU (ssRNA) [Id_ii_S1_P4E.2_K4.1_C4.2_[C-2A]_H4.1_A4.1_F4.1_T4.2_[G10A]_[T11A]] | 0.655
UCUCUUACUGUAUAUUAUUUCUCUU (ssRNA) [Id_ii_S1_P4E.2_K4.1_C4.2_[C-2A]_[T-1C]_H4.1_A4.1_F4.1_T4.2_[G10T]] | 1.39
UCUCUUUGCAUGUUAUCUCUU (ssRNA) [Ib_S1_P4E.1_K4.1_C4.1_H4.1_[T3C]_A4.1_[A6G]_F4.1_T4.1] | 2150
UCUCUUAAUGUAUAUUACUUCUCUU (ssRNA) [Id_ii_S1_P4E.2_K4.1_C4.2_[C-2A]_[T-1A]_H4.1_A4.1_F4.1_T4.2_[G10C]] | 1.68
UCUCUUUUUGUAUAUUAUAUCUCUU (ssRNA) [Id_ii_S1_P4E.2_K4.1_C4.2_[C-2T]_H4.1_A4.1_F4.1_T4.2_[G10T]_[T11A]] | 1.24
UCUCUUUGCAAAUUAUCUCUU (ssRNA) [Ib_S1_P4E.1_K4.1_C4.1_H4.1_[T3C]_A4.1_[T5A]_F4.1_T4.1] | 926
UCUCUUAUUGUAUAUUAGUUCUCUU (ssRNA) [Id_ii_S1_P4E.2_K4.1_C4.2_[C-2A]_H4.1_A4.1_F4.1_T4.2] | 0.431
UCUCUUCCUGUAUAUUAUAUCUCUU (ssRNA) [Id_ii_S1_P4E.2_K4.1_C4.2_[T-1C]_H4.1_A4.1_F4.1_T4.2_[G10T]_[T11A]] | 0.96
UCUCUUAUUGUAUAUUAUGUCUCUU (ssRNA) [Id_ii_S1_P4E.2_K4.1_C4.2_[C-2A]_H4.1_A4.1_F4.1_T4.2_[G10T]_[T11G]] | 1.27
UCUCUUAUUGUAUAUUACCUCUCUU (ssRNA) [Id_ii_S1_P4E.2_K4.1_C4.2_[C-2A]_H4.1_A4.1_F4.1_T4.2_[G10C]_[T11C]] | 0.788
UCUCUUAUUGUAUAUUAACUCUCUU (ssRNA) [Id_ii_S1_P4E.2_K4.1_C4.2_[C-2A]_H4.1_A4.1_F4.1_T4.2_[G10A]_[T11C]] | 1.01
UCUCUUCGUGUAUAUUAGUUCUCUU (ssRNA) [Id_ii_S1_P4E.2_K4.1_C4.2_[T-1G]_H4.1_A4.1_F4.1_T4.2] | 0.399

Binder | Kd [nM]
UCUCUUAUUGUAUAUUAGCUCUCUU (ssRNA) [Id_ii_S1_P4E.2_K4.1_C4.2_[C-2A]_H4.1_A4.1_F4.1_T4.2_[T11C]] | 0.714
UCUCUUUGCAUCUUAUCUCUU (ssRNA) [Ib_S1_P4E.1_K4.1_C4.1_H4.1_[T3C]_A4.1_[A6C]_F4.1_T4.1] | > 2300
UCUCUUACUGUAUAUUAACUCUCUU (ssRNA) [Id_ii_S1_P4E.2_K4.1_C4.2_[C-2A]_[T-1C]_H4.1_A4.1_F4.1_T4.2_[G10A]_[T11C]] | 1.47
UCUCUUCGUGUAUAUUAGGUCUCUU (ssRNA) [Id_ii_S1_P4E.2_K4.1_C4.2_[T-1G]_H4.1_A4.1_F4.1_T4.2_[T11G]] | 0.943
UCUCUUUUUGUAUAUUAGGUCUCUU (ssRNA) [Id_ii_S1_P4E.2_K4.1_C4.2_[C-2T]_H4.1_A4.1_F4.1_T4.2_[T11G]] | 0.884
UCUCUUAAUGUAUAUUAUCUCUCUU (ssRNA) [Id_ii_S1_P4E.2_K4.1_C4.2_[C-2A]_[T-1A]_H4.1_A4.1_F4.1_T4.2_[G10T]_[T11C]] | 2.38
UCUCUUCCUGUAUAUUAGUUCUCUU (ssRNA) [Id_ii_S1_P4E.2_K4.1_C4.2_[T-1C]_H4.1_A4.1_F4.1_T4.2] | 0.262
UCUCUUUUUGUAUAUUAAGUCUCUU (ssRNA) [Id_ii_S1_P4E.2_K4.1_C4.2_[C-2T]_H4.1_A4.1_F4.1_T4.2_[G10A]_[T11G]] | 3.68
UCUCUUAUUGUAUAUUAUCUCUCUU (ssRNA) [Id_ii_S1_P4E.2_K4.1_C4.2_[C-2A]_H4.1_A4.1_F4.1_T4.2_[G10T]_[T11C]] | 0.846
UCUCUUUAUGUAUAUUAGUUCUCUU (ssRNA) [Id_ii_S1_P4E.2_K4.1_C4.2_[C-2T]_[T-1A]_H4.1_A4.1_F4.1_T4.2] | 0.379
UCUCUUCCUGUAUAUUAAUUCUCUU (ssRNA) [Id_ii_S1_P4E.2_K4.1_C4.2_[T-1C]_H4.1_A4.1_F4.1_T4.2_[G10A]] | 0.693
UCUCUUACUGUAUAUUACUUCUCUU (ssRNA) [Id_ii_S1_P4E.2_K4.1_C4.2_[C-2A]_[T-1C]_H4.1_A4.1_F4.1_T4.2_[G10C]] | 1.6
UCUCUUAAUGUAUAUUAUUUCUCUU (ssRNA) [Id_ii_S1_P4E.2_K4.1_C4.2_[C-2A]_[T-1A]_H4.1_A4.1_F4.1_T4.2_[G10T]] | 1.61
UCUCUUCCUGUAUAUUAUGUCUCUU (ssRNA) [Id_ii_S1_P4E.2_K4.1_C4.2_[T-1C]_H4.1_A4.1_F4.1_T4.2_[G10T]_[T11G]] | 1.01
UCUCUUUUUGUAUAUUAGUUCUCUU (ssRNA) [Id_ii_S1_P4E.2_K4.1_C4.2_[C-2T]_H4.1_A4.1_F4.1_T4.2] | 0.256
UCUCUUAGUGUAUAUUAUUUCUCUU (ssRNA) [Id_ii_S1_P4E.2_K4.1_C4.2_[C-2A]_[T-1G]_H4.1_A4.1_F4.1_T4.2_[G10T]] | 2.57
